Measured values taken from IntAct's records for PubMed 31515488.

B1: E3 ubiquitin-protein ligase MARCHF5 (Homo sapiens), Q9NX47 (parent)
chain: MPDQALQQMLDRSCWVCFATDEDDRTAEWVRPCRCRGSTKWVHQACLQRWVDEKQRGNSTARVACPQCNAEYLIVFPKLGPVVYVLDLADRLISKACPFAAAGIMVGSIYWTAVTYGAVTVMQVVGHKEGLDVMERADPLFLLIGLPTIPVMLILGKMIRWEDYVLRLWRKYSNKLQILNSIFPGIGCPVPRIPAEANPLADHVSATRILCGALVFPTIATIVGKLMFSSVNSNLQRTILGGIAFVAIKGAFKVYFKQQQYLRQAHRKILNYPEQEEA
partner: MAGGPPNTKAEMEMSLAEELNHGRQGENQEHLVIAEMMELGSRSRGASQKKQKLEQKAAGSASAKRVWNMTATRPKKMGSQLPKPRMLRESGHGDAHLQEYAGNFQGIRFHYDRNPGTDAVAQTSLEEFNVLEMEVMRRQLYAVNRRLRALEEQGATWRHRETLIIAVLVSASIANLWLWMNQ
B2: ATP synthase mitochondrial F1 complex assembly factor 2 (Homo sapiens), Q8N5M1 (parent)
chain: MWRSCLRLRDGGRRLLNRPAGGPSASMSPGPTIPSPARAYAPPTERKRFYQNVSITQGEGGFEINLDHRKLKTPQAKLFTVPSEALAIAVATEWDSQQDTIKYYTMHLTTLCNTSLDNPTQRNKDQLIRAAVKFLDTDTICYRVEEPETLVELQRNEWDPIIEWAEKRYGVEISSSTSIMGPSIPAKTREVLVSHLASYNTWALQGIEFVAAQLKSMVLTLGLIDLRLTVEQAVLLSRLEEEYQIQKWGNIEWAHDYELQELRARTAAGTLFIHLCSESTTVKHKLLKE
partner: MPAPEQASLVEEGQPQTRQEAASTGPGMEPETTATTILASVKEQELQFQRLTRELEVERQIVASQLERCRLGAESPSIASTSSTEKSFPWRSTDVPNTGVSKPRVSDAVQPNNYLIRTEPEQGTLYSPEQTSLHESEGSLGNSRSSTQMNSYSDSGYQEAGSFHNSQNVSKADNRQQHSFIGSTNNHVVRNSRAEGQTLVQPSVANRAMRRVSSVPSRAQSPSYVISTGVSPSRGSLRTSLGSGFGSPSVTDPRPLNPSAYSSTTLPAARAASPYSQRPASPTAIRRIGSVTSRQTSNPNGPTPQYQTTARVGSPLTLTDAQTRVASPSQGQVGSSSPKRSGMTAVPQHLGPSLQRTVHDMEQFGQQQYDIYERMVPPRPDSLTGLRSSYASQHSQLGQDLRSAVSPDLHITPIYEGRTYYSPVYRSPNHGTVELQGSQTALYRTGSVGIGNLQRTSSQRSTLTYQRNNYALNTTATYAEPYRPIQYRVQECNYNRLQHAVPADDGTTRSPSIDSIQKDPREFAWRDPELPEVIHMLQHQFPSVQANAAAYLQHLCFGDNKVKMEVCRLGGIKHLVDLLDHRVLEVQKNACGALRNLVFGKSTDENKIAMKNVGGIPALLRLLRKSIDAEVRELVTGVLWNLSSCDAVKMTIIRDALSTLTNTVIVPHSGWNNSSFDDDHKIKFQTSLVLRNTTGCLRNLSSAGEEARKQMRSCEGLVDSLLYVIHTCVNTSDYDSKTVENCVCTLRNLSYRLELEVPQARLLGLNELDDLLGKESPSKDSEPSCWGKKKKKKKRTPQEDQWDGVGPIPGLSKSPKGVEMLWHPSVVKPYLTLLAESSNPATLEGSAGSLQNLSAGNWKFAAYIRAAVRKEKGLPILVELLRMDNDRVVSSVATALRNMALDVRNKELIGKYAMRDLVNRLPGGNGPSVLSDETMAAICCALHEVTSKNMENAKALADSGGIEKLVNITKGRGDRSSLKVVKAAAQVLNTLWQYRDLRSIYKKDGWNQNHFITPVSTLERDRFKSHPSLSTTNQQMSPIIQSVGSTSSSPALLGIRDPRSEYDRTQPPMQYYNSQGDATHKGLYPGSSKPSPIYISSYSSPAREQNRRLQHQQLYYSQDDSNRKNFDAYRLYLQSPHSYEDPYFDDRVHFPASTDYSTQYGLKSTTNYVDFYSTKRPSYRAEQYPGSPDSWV
B3: DNA topoisomerase 3-beta-1 (Homo sapiens), O95985 (parent)
chain: MKTVLMVAEKPSLAQSIAKILSRGSLSSHKGLNGACSVHEYTGTFAGQPVRFKMTSVCGHVMTLDFLGKYNKWDKVDPAELFSQAPTEKKEANPKLNMVKFLQVEGRGCDYIVLWLDCDKEGENICFEVLDAVLPVMNKAHGGEKTVFRARFSSITDTDICNAMACLGEPDHNEALSVDARQELDLRIGCAFTRFQTKYFQGKYGDLDSSLISFGPCQTPTLGFCVERHDKIQSFKPETYWVLQAKVNTDKDRSLLLDWDRVRVFDREIAQMFLNMTKLEKEAQVEATSRKEKAKQRPLALNTVEMLRVASSSLGMGPQHAMQTAERLYTQGYISYPRTETTHYPENFDLKGSLRQQANHPYWADTVKRLLAEGINRPRKGHDAGDHPPITPMKSATEAELGGDAWRLYEYITRHFIATVSHDCKYLQSTISFRIGPELFTCSGKTVLSPGFTEVMPWQSVPLEESLPTCQRGDAFPVGEVKMLEKQTNPPDYLTEAELITLMEKHGIGTDASIPVHINNICQRNYVTVESGRRLKPTNLGIVLVHGYYKIDAELVLPTIRSAVEKQLNLIAQGKADYRQVLGHTLDVFKRKFHYFVDSIAGMDELMEVSFSPLAATGKPLSRCGKCHRFMKYIQAKPSRLHCSHCDETYTLPQNGTIKLYKELRCPLDDFELVLWSSGSRGKSYPLCPYCYNHPPFRDMKKGMGCNECTHPSCQHSLSMLGIGQCVECESGVLVLDPTSGPKWKVACNKCNVVAHCFENAHRVRVSADTCSVCEAALLDVDFNKAKSPLPGDETQHMGCVFCDPVFQELVELKHAASCHPMHRGGPGRRQGRGRGRARRPPGKPNPRRPKDKMSALAAYFV
partner: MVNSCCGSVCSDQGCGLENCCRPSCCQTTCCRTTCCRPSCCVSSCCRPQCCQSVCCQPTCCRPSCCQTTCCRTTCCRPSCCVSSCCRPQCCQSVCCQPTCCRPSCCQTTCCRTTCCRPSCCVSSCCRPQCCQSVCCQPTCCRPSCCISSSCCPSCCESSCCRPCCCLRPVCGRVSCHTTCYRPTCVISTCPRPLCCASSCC
B4: Alpha-taxilin (Homo sapiens), P40222 (parent)
chain: MKNQDKKNGAAKQSNPKSSPGQPEAGPEGAQERPSQAAPAVEAEGPGSSQAPRKPEGAQARTAQSGALRDVSEELSRQLEDILSTYCVDNNQGGPGEDGAQGEPAEPEDAEKSRTYVARNGEPEPTPVVNGEKEPSKGDPNTEEIRQSDEVGDRDHRRPQEKKKAKGLGKEITLLMQTLNTLSTPEEKLAALCKKYAELLEEHRNSQKQMKLLQKKQSQLVQEKDHLRGEHSKAVLARSKLESLCRELQRHNRSLKEEGVQRAREEEEKRKEVTSHFQVTLNDIQLQMEQHNERNSKLRQENMELAERLKKLIEQYELREEHIDKVFKHKDLQQQLVDAKLQQAQEMLKEAEERHQREKDFLLKEAVESQRMCELMKQQETHLKQQLALYTEKFEEFQNTLSKSSEVFTTFKQEMEKMTKKIKKLEKETTMYRSRWESSNKALLEMAEEKTVRDKELEGLQVKIQRLEKLCRALQTERNDLNKRVQDLSAGGQGSLTDSGPERRPEGPGAQAPSSPRVTEAPCYPGAPSTEASGQTGPQEPTSARA
partner: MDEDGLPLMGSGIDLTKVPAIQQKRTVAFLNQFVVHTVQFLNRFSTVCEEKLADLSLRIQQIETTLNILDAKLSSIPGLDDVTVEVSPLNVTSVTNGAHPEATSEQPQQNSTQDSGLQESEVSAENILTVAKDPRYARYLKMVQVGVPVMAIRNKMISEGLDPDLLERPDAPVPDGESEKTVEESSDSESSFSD

Variants of: B1
Conditions: with fate1_human FATE1, Q969F0

Row | effect of a mutation on the interaction | Variant
1 | with no effect | D202N

Variants of: B2
Conditions: with pkp4_human PKP4, Q99569

Row | effect of a mutation on the interaction | Variant
2 | with no effect | E241G

Variants of: B3
Conditions: with kr412_human KRTAP4-12, Q9BQ66

Row | effect of a mutation on the interaction | Variant
3 | with no effect | R267W

Variants of: B4
Conditions: with wasc3_human WASHC3, Q9Y3C0

Row | effect of a mutation on the interaction | Variant
4 | with no effect | P541S
5 | with no effect | S514R
